The text below walks through data of the DeepSol protein solubility set.

This data set can be described thus: soluble on expression in E. coli; label from the status in PepcDB or PDB records.
As for “MVQDWHQQEKARMIQTLTGTKAVYGSEVESKIIEFAIVGADEVVAEKLGVSIGDFVYKIIRLRIIHSIPTIMEHTWMPISVIPGVEASVLEESIYSHIQNKLGLEVGTSVVRVKGIRPDDREKQFMNLTNQDFLMRVEQVAYLTDGRTFEYSYADHLPETFEFETVITAKKL”, the “soluble on expression in E. coli” value is given as “not soluble”. Consider “MVQLDGGQFEMGTKATDGKDGESPVMQVKVLPFAIDKYPVTNRDFREFVRAKKYKTEAEAFGWSFVFEDFVSEELKKKVTQKLESAPWWLPVERAFWRQVSNLSVPLLLSGGSKGLFAAE”, for which the “soluble on expression in E. coli” value is given as “not soluble”. With “MVRELKRFGARFTFLFSARRMCPLMTAEGSLPSVEDFWGNCRIARAKGVCSYYEELSRLDEAEVAQYVRSRPVISAYRLAWDIAKFKGACPFFALKGLVEDSQFIVATYPYLFKEDIFRSFLEPYDYGDFVAVVDEAHSLLNIHSLHEYRVSQRDLDLALKEVREYASSARDFIAWLESVLKKASRLKVSRITLLDKQPFLEGLDDLSVVEDVVETIRARKAEEALSLSGPSGIGRVKTMASRIYSWLSVLVRDDSYLFAEKDEGGVLWLIATPLDPSRVVKEPLEKVKAAVLLSGTMPSTKLYMEVLGVSRSFKFVDVNLMYGARGFGRFFTIVAADVTTAYRSRGDSMYRLIASRIAMADRLLPGLKLAVYPSYEVMYRVVERLPADVETIVETRGISLDEVEAKILARDPGEKIIINAVAGGKLVEGVEFVDYEGRNLLSTVIVVGVPFPQPDDYTRKHLEVMASRIGVSNARKLVYLVNPMIKVRQALGRGIRGPEDRALYILMDYRYLRRDLKEVLGMPYHRVVKGAEDFEEAVKAARSRVFGG”, the “soluble on expression in E. coli” value is listed as “soluble”. In the case of “MVRSFIYEPFQIPSGSMMPTLLIGDFILVEKFAYGIKDPIYQKTLIETGHPKRGDIVVFKYPEDPKLDYIKRAVGLPGDKVTYDPVSKELTIQPGCSSGQACENALPVTYSNVEPSDFVQTFSRRNGGEATSGFFEVPKNETKENGIRLSERKETLGDVTHRILTVPIAQDQVGMYYQQPGQQLATWIVPPGQYFMMGDNRDNSADSRYWGFVPEANLVGRATAIWMSFDKQEGEWPTGLRLSRIGGIH”, the “soluble on expression in E. coli” value is listed as “soluble”.

Turning to “MVRTCSNCGSSEIDEDAARGDATCTACGTVLEESIVVTENQFQERAGGSGHTLVGQFVSSERAAANNFNGMGSQESREMTYAKGRKVIDELGSQLRINSHCMNTAFNFYKMCVSRNLTRGRNRSSVVAVCMYITCRLENTAHLLLDFSDVTQINVFDLGRNLNYLSRSLRINLPSTDPCLYIMRFACVLDFGDKQKEVVNLATRLVQRMKRDWMSTGRRPTGICGAALLIAARSLNFNRSINDIVRVVHISEGVIRKRLDEFSQTPSGSLTIDEFSTVDLEHSEDPPAYRESRRKAREDQLRKEAEQAESMKEQLGEMEAHVEAALDKKRKEKFSKSPYARMISENLGKENDKMQTLTETVVESSGLEKGADEMVRNEIINTVFNAAEEDPCTSNSLEKYDKYRPSLESLGIKRTSEPEPEPVPHPIVNADLEEDISDSEIDSYILTESEVAIKTDYWMKANGEAMKEIEEKKRERELNGGVKKKKPRSNRKTDTTSTSVASAVEKVIAEKKLSNKVNYEMLKDLETMATGIKRDIRESTPAPVTPISIKVDSSDVTPDTLSKSEKIARGKNIRSQASESTIQKLRSIFDLTEECSETSKNSSPKVNLKVESASPSTSEVSSIEHKPFVPPARSRYAKVKPIIGAKKLAALNEVKNVHTVPEPSAPAEPIVSEAPLQVKTSSSDPIVTSTEVPSVAEPPAPIQNVEEAKPIVPVKSRYAKAKPNLKPIKQKTAVDVVTVGEGESSEPSAKRTKAEHLES”, the “soluble on expression in E. coli” value is reported as “not soluble”. The result for “MVRVYIGRFPNRASDRDAEHFFCDYGKLPDAIMKNVFGVGCKDFQDQSDADDIICDEQTRILLVEKLKNAKEYPTINHD” reads “not soluble”. The result for “MVSHHNLTTGATLINEQWLLTTAKNLFLNHSENATAKDIAPTLTLYVGKKQLVEIEKVVLHPNYSQVDIGLIKLKQKVSVNERVMPICLPSKDYAEVGRVGYVSGWGRNANFKFTDHLKYVMLPVADQDQCIRHYEGSTVPEKKTPKSPVGVQPILNEHTFCAGMSKYQEDTCYGDAGSAFAVHDLEEDTWYATGILSFDKSCAVAEYGVYVKVTSIQDWVQKTIAEN” reads “not soluble”.
